# The RNAGym collection of RNA variant scans (doi:10.1073/pnas.2313332121)
# This sample holds only a part of the variants without activity.
# B1: TPR 5TU (parent)
# chain: GGAUCUUCUCGAUCUAACAAAAAAGACAAAUCUGCCACAAAGCUUGAGAGCAUCUUCGGAUGCAGAGGCGGCAGCCUUCGGUGGCGCGAUAGCGCCAACGUUCUCAACUAUGACACGCAAAACGCGUGCUCCGUUGAAUGGAGUUUAUCAUG
# Variants of: B1
# Experiment: polymerase ribozyme fitness, log enrichment relative to wild type (log ratio); higher = more active; in vitro selection for triplet polymerase activity
# Summary of the method: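 Mutant libraries of both subunits of a heterodimeric triplet polymerase ribozyme were PCR-built, transcribed, and selected once in triplicate, with frozen incubation at −7 °C and capture of gel-excised extended constructs on streptavidin beads before RT-PCR. Illumina sequencing of input and output libraries was filtered to genotypes with ≥10 input reads and ≥1 read per output. Fitness is the logarithm of genotype enrichment over wild-type enrichment, using inverse-variance-weighted replicate averages. The logarithm is base 2.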
row,Variant,polymerase ribozyme fitness (log ratio)
1,GGAUGUUCUCGAUCUAACAAAAAAGACAAAUCUGCCACAACGCUUGAGAGCAUCAUCAGGUGCAGAGGCGGCAGCCUUCGGUGGCGCGAUAGCGCCAACGUUCUCAACUAUGACACGCAAAACGCGUGCUCCGUUGAAUGGAGUUUAUCAUG [C5G A41C U55A G58A A60G],-1.54
2,GGAUGUUCUCGAUCUAACAAAAAAGACAAAUCUGCCACAAAGCUUGAGAGCGUCUUCGGAUGCAGAGGCGGCAGCCUUCAGUGGCGCGAUAGCGCCAACGUUCUCAACUAUGACACGCAAAACGCGUGCUCCGUUGAAUGGAGUUUAUCAUG [C5G A52G G80A],-1.81
3,GGAUGUUAUCGAUCUAACAAAAAAGAUAAAUCUGCCACAAAGCUUGAGCGCAUCUACGGAUGCAGAGGCGGCAGCCUUCGGUGGCGCGAUAGCAGCAACGUUCUCAACGAUGACACGCAAAACGCGUGCUCCGUUGAAUGGAGUUUAUCAUG [C5G C8A C27U A49C U56A G94A C95G U109G],≤ -4.2
4,GGAUGUUCUCGAUCUAACAAAAAAGACAAAUAUGCCACAAAGCUUGAGAGCAUCUUCGGAUGCAGAGGCGGCAGCAUUCGGUGGCGCGAUAGCGCCAACGUUCUCAACGAUGACACGCAAAACGCGUGCUCCGUUGAAUGCAGUUUAUCAUG [C5G C32A C76A U109G G141C],≤ -4.2
5,GGAUGUUCUCGAUCUAACACAAAAGACAAAUCUGCCACAAAGCUUGAGAGCAUCUUCGGAUGCAGAGGCGGCAGCCUUCGGUGGCGCGAUAGCGCCAACGUUCUCAACUAUGACACGCAAAACGCGUGCUCCGUUGAAUGGAGUUUAUCAUG [C5G A20C],-0.472
6,GGAUAUUCUCGAUCUAACAAAAAAGACAAAUCUGCCACAAAGCUUGAGAGCAUCGUCGGAUGCAGAGCCGGCAGCCUUCGGUGGCGCGAUAGCGCCAACGUUCUCAACUAUGACACGCAAAACGCGUGCUCCGUUGAAUGGAGUUUAUCAUG [C5A U55G G68C],≤ -4.2
7,GGAUGUUCUCGAUCUAACAAAAAAGACAACUCUGCCACAAAGCUUGAGAGCAUCUUCGGAUGCAGAGGCGGCAGCCUUCGUUGGCGCGAUAGCGCCAACGUUCUCAACUAUGACACGCAAAACGCGUGCUCCGUUGACUGGAGCUUAUCAUG [C5G A30C G81U A138C U144C],≤ -4.2
8,GGAUAUUCCCGAUCUAACAAAAAAGACAAAUCUGCCACAAAACUUGAGAGCGUCUUCGGAUGCAGCGGCGGCAACCUUCGGAGGCGCGUUAGCGCCAACGUUCUCAACUAUGACACGCAAAAAGCGUGAUCCUUUGAAUGGAGUUUAUCAUG [C5A U9C G42A A52G A66C G74A U82A A89U C123A C129A G133U],≤ -4.2
9,GGAUGUUCUCGAUCUGACAAUAAAGACAAAUCUGCCACAAAGCUUGAGAGCAUCUUCGGAUGCAGAGGCGGCAGCCUUCGGUGGCGCGAUAGUGCCAACGGUCUCAACUCUGACAUGCAAAACCCGUGCUCCGUUGAAUGGAGUUUAUCAUG [C5G A16G A21U C93U U101G A110C C116U G124C],≤ -4.2
10,GGAUGUUCUCGAUCUAACAAAAAAGACAAAUCUGCCACAAAGCUUGAGAGCAUCUUCGGAUGCAGAGGCGGCAGCCUUCGGUGGCGCGAUAGCGCCAACGUUCUCAACUAUGACACGCAAAACGCGUGCUCCGUUGAAUGGAGUUUCUCAUG [C5G A147C],-0.562
11,GGAUGUUCUCGAUCUAACUAAAAAGACAAAUCUGCCACAAAGCUUGAGAGCAUCUUCGGAUGCAGAGGCGGCAGCCUUCGGUGGCGCGAUGGCGCCAACGUUCUCAACUAUGGCACGCAAAACGCGUGCUCCGUUGAAUGGAGUUUAUCAUG [C5G A19U A91G A113G],≤ -4.2
12,GGAUGUUCUCGAUCUAACAAAAAAGACAAAUAUGCCACAAAGCUUGAGAGCAUCUUUGGAUGCAGAGGCGGCAGCCUUCGGUGGCGCGAUAGCGCCAAUGUUCUCAACUAUGACACGCAAAACGCGUGCUCCGUUGAAUGGAGUUUAUCAUG [C5G C32A C57U C99U],≤ -4.2
13,GGAUAUUCUCGAUCUAACAAAAAAGACAAAUCUGCCACAAAGCCUGAGAGCAUCUUCGGAUGCAGAGGCGGCAGCAUUCGGUGACGCGAUAGCGCCAACGUUCUCAACUAUGACACGCAAAACGCGUGCUUCGUUGAAUGGAGUUUAUCUUG [C5A U44C C76A G84A C131U A150U],≤ -4.2
14,GGAUGUUCUCGAUCUAACAAAACAGACAAAUCUGCCACAAAGCUUGAGAGCAUCUUCGGAUGCAGAGCCGGCAGCCUUCGCUCGCGCGAUAGCGCCAACGGUCUCAACUAUGACACGUAAAACGCGUGCUCCGUUGAAUGUAGUUUAUCAUG [C5G A23C G68C G81C G83C U101G C118U G141U],≤ -4.2
15,GGAUGUUCUCGAUCUUACAAAAAAGACAAAUCUGCCACAAAGGUUGAGAGCAUCUUCGGAUGCAGAGGCGGCAGCCUUCGGUGGCGCGAUAGGGCCAACGUUCUCUUCUAUGACACGCAAAACGCGUGCUCCGUUGAAUGGAGUUUAUCAUG [C5G A16U C43G C93G A106U A107U],≤ -4.2
16,GGAUGUUCUCGAUCUAACAAAACAGACAAAUCUGCCACAAAGCUUGAGAGCAUCUUCGGAUGCAGGGGUGGCAGCCUUCGGUGGCGCGAUGGCGCCAACGUUCUGAACUAUGACACGCAUAACGCGUGCUCCGUUGAAUGGAGUUUAUCAUG [C5G A23C A66G C69U A91G C105G A120U],≤ -4.2
17,GGAUGUUCUCGAUCUAACAACAAAGACAUAUCUGCCACAAAGCUUGAGAGCAUCUUCGGAUGCAGAGGCGGCAGCCUUCGGAGGCGCGAUAGCACCAACGUUCUCAACUAUGACACGCAAAACGCGUGCUCCGUUCAAUGGAGUUUAUCACG [C5G A21C A29U U82A G94A G136C U151C],≤ -4.2
18,GGAUGUUCUCGAUCUAACAAAAAAGACAAUUCUGCCACAAAGCUUGAGAGCAUCUUCGAAUGCAGAGGCGGCAGCCUUCGGUGGCGGGAUAGCGCCAACGUUCUCAAUUAUGACACGCAAAACGCGUGCUCCGUUGAAUGGAGUUUAACAUG [C5G A30U G59A C87G C108U U148A],≤ -4.2
19,GGAUGUUCUCGAUCUGACGAAAAUGACAAAUCUGCCGCAAAGCUUGAGACCAUCUUCGGAUGCAGAGGCGGCAGCCUUCGGUGUCGCGAUAGCGCCAACGUUCUCAACUAUGACACGCACAACGCGUGCUCCUUUGAAUGGAGUUUAUCAUG [C5G A16G A19G A24U A37G G50C G84U A120C G133U],≤ -4.2
